According to PMC13316113, “RNA-induced PRC2 inhibition depends on the sequence of bound RNA”:

How the values were obtained:
[1] = molecular target: T1, six-subunit PRC2 (EZH2-EED-SUZ12-RBAP48-AEBP2-JARID2) (UniProt Q15910-2;O75530;Q15022;Q09028;Q6ZN18-2;Q92833 …); experiment: EMSA; 100 mM KCl; EMSA: 50 mM Tris-HCl pH 7.5 (25 C), 100 mM KCl (or LiCl), 2.5 mM MgCl2, 0.1 mM ZnCl2, 2 mM 2-mercaptoethanol, 0.05 mg/ml BSA, 0.05 mg/ml yeast tRNA, 5% glycerol, 30 C 30 min; details: protein: recombinant, tags: His (EZH2), Strep-GFP (AEBP2, JARID2), TEV treated, AEBP2 retains 7 extra N-terminal aa, copies: 1;1;1;1;1;1, label: 32P 5' (EMSA)
[2] = molecular target: T1, six-subunit PRC2 …; experiment: as above; details: protein: recombinant, tags: His (EZH2), Strep-GFP (AEBP2, JARID2), TEV treated, AEBP2 retains 7 extra N-terminal aa, copies: 1;1;1;1;1;1, label: 32P 5' (EMSA); remark: listed apart in the source
[3] = molecular target: six-subunit PRC2 AEBP2del261-389 (UniProt Q15910-2;O75530;Q15022;Q09028;Q6ZN18-2;Q92833 …, internal_change); experiment: EMSA; P = 0.05 vs WT; EMSA: 50 mM Tris-HCl pH 7.5 (25 C), 100 mM KCl (or LiCl), 2.5 mM MgCl2, 0.1 mM ZnCl2, 2 mM 2-mercaptoethanol, 0.05 mg/ml BSA, 0.05 mg/ml yeast tRNA, 5% glycerol, 30 C 30 min; details: protein: recombinant; copies: 1;1;1;1;1;1; label: 32P 5' (EMSA); no G4
[4] = molecular target: T1, six-subunit PRC2 …; experiment: UV crosslinking; very low crosslinking efficiency despite saturated binding; EMSA: 50 mM Tris-HCl pH 7.5 (25 C), 100 mM KCl (or LiCl), 2.5 mM MgCl2, 0.1 mM ZnCl2, 2 mM 2-mercaptoethanol, 0.05 mg/ml BSA, 0.05 mg/ml yeast tRNA, 5% glycerol, 30 C 30 min; details: protein: recombinant; tags: His (EZH2), Strep-GFP (AEBP2, JARID2); TEV treated; AEBP2 retains 7 extra N-terminal aa; copies: 1;1;1;1;1;1; label: 32P; G4

AAAAAAAAAAGAGAGAGAUUAGGGUUAGGGUUAGGGUUAGGGAGAGAGAG (structured_RNA) [TERRA] gave a Kd ([1]; single intramolecular G4 in K+) of 18 ± 9 nM.

UUUUUUUUUUUUUUUUUUUUUUUUUUUUUUUUUUUUUUUUUUUUUUUUUU (ssRNA) [Poly(U)] showed a Kd ([1]; single strand) of 28 ± 4 nM.

With UUUUUUUUUUCUCUUUCUCUCCUUCUCUUCCUCUCUCUCCUCUUUCUCUC (ssRNA) [P10] the binding signal ([2]; single strand) was ~4 fold weaker than TERRA/Poly(U)/Poly(C).

Work on AAAAAAAAAAGAGAGAGAUGAGUGUGAGUGUGAGUGUGAGUGAGAGAGAG (ssRNA) [TERRAmut] yielded a Kd ([1]; no G4) of 66 ± 15 nM and a Kd [3] of 112 ± 24 nM.

B1: 2G4 (structured_RNA)
RNA: AAAAAAAAAAGGGAAGGGAAGGGAAGGGAACAACAACAACAACAAGGGAAGGGAAGGGAAGGGAA
B1: binds [4].

AAAAAAAAAAGUGUGUGUGUGUGUGUGUGUGUGUGUGUGUGUGUGUGUGU (structured_RNA) [pUG-fold] was tested, and the binding signal ([2]; atypical G4 (pUG-fold: three G quartets and one U quartet)) was ~2 fold weaker than TERRA/Poly(U)/Poly(C).
